This experiment addresses T1, human mesothelin expressed on the plasma membrane of cells (HeLa, OVCAR-3, SK-OV-3, A1847) (human, UniProt Q13421 296-598).
T1 construct: whole, on cells; GPI-linked cell-surface form on human cell lines and on A1847 spheroid sections and tumors; also called Msln
Briefly: flow cytometry on HeLa cells, chemically biotinylated Nb, PE-streptavidin, double-reciprocal fit. The protocol: In specific experimental embodiments, the affinity of the two Nbs, Nb A1 and Nb C6, can determined by flow cytometry using HeLa cells. Binding to HeLa cells can be detected using flow cytometry after incubation with various concentrations of biotinylated Nbs followed by PE-labeled streptavidin. KD values are determined by the equation KD=a *Fₘₐₓ in which “a” is the regression line and Fₘₐₓ is the maximum of fluorescence. […] In addition, the higher affinity and maximum mean fluorescence intensity (MFI) achieved with Nb A1 is consistent with its predominant representation in the phage display output and the larger fluorescence shift seen with flow cytometry.
Briefly, fifty μg of each Nb are biotinylated chemically using the EZ-Link Micro NHSPEO4-Biotinylation Kit. After incubation of mesothelin-positive HeLa cells (5×10⁵) with various concentrations of biotinylated Nbs for one hour at four degrees C. under shaking (nine hundred rpm), Nbs binding is detected by flow cytometry following incubation with (PE)-labeled streptavidin. The KD values are determined by the equation: […]

T1 sequence (Q13421 other isoform, or with tags, fused parts or gaps limits assumed): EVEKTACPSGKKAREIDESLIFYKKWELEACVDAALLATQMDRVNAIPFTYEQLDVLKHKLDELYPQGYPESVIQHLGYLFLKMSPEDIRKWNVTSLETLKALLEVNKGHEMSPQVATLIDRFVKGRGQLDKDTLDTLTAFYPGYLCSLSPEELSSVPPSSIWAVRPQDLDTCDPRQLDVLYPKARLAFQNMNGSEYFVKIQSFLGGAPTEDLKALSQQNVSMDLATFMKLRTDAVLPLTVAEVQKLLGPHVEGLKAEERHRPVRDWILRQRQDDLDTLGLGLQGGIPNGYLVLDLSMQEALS

B1: Nb A1 (VHH)
VHH: HPGGSLRLSCAASGIDLSLYRMRWYRQAPGKERDLVALITDDGTSYYEDSVKGRFTITRDNPSNKVFLQMNSLKPEDTAVYYCNAETPLSPVNYWGQ
notes: Llama VHH made in the E. coli periplasm with a C-terminal His tag; also called G3A; G3a; not shown: C-terminal hexahistidine tag
With B1, the Kd was roughly 0.015 µM.

B2: Nb C6 (VHH)
VHH: QAGGSLRLSCAPSGSIFGIRTMDWYRQAPGKERELVARITMDGRVFHADSVKGRFSGSRDGASNAVYLQMNSLKPDDTAVYYCRYSGLTSREDYWGP
notes: Llama VHH made in the E. coli periplasm with a C-terminal His tag; also called F10; not shown: C-terminal hexahistidine tag
Take B2: the Kd was determined as 0.03 µM. This lies in the double-digit nanomolar range.

These data come from patent publication US20170267755A1 (SRI INTERNATIONAL, published 2017).
